Source: patent publication US20110195911A1, “SYNTHETIC ANALOGS OF THE JUXTAMEMBRANE DOMAIN OF IGF1R AND USES THEREOF” (THE UNITED STATES OF AMERICA,AS REPRESENTED BY THE …, priority 2008, published 2011)
Where no end group is shown, it is not given here. [ ]: non-standard residue; d: D form. The star is where a group is joined. Palmitoyl = CCCCCCCCCCCCCCCC(=O)*

B1: peptide 21 (Pal-VSAYLVGNGLRSNNR-NH2) (peptide)
peptide: Palmitoyl-[dV][dS][dA][dY][dL][dV]G[dN]G[dL][dR][dS][dN][dN][dR]-NH2
SMILES: CCCCCCCCCCCCCCCC(=O)N[C@@H](C(=O)N[C@H](CO)C(=O)N[C@H](C)C(=O)N[C@H](Cc1ccc(O)cc1)C(=O)N[C@H](CC(C)C)C(=O)N[C@@H](C(=O)NCC(=O)N[C@H](CC(N)=O)C(=O)NCC(=O)N[C@H](CC(C)C)C(=O)N[C@H](CCCNC(=N)N)C(=O)N[C@H](CO)C(=O)N[C@H](CC(N)=O)C(=O)N[C@H](CC(N)=O)C(=O)N[C@H](CCCNC(=N)N)C(N)=O)C(C)C)C(C)C
B2: peptide 3 (Pal-HRKRNNSRLGNGVLYASVN-NH2) (peptide)
peptide: Palmitoyl-HRKRNNSRLGNGVLYASVN-NH2
SMILES: CCCCCCCCCCCCCCCC(=O)N[C@@H](Cc1c[nH]cn1)C(=O)N[C@@H](CCCNC(=N)N)C(=O)N[C@@H](CCCCN)C(=O)N[C@@H](CCCNC(=N)N)C(=O)N[C@@H](CC(N)=O)C(=O)N[C@@H](CC(N)=O)C(=O)N[C@@H](CO)C(=O)N[C@@H](CCCNC(=N)N)C(=O)N[C@@H](CC(C)C)C(=O)NCC(=O)N[C@@H](CC(N)=O)C(=O)NCC(=O)N[C@H](C(=O)N[C@@H](CC(C)C)C(=O)N[C@@H](Cc1ccc(O)cc1)C(=O)N[C@@H](C)C(=O)N[C@@H](CO)C(=O)N[C@H](C(=O)N[C@@H](CC(N)=O)C(N)=O)C(C)C)C(C)C
B3: peptide 14 (Pal-RNNSRLGNGVLYASVN-NH2) (peptide)
peptide: Palmitoyl-RNNSRLGNGVLYASVN-NH2
SMILES: CCCCCCCCCCCCCCCC(=O)N[C@@H](CCCNC(=N)N)C(=O)N[C@@H](CC(N)=O)C(=O)N[C@@H](CC(N)=O)C(=O)N[C@@H](CO)C(=O)N[C@@H](CCCNC(=N)N)C(=O)N[C@@H](CC(C)C)C(=O)NCC(=O)N[C@@H](CC(N)=O)C(=O)NCC(=O)N[C@H](C(=O)N[C@@H](CC(C)C)C(=O)N[C@@H](Cc1ccc(O)cc1)C(=O)N[C@@H](C)C(=O)N[C@@H](CO)C(=O)N[C@H](C(=O)N[C@@H](CC(N)=O)C(N)=O)C(C)C)C(C)C
B4: peptide 11 (Pal-HRKRNNSRLGNGV-NH2) (peptide)
peptide: Palmitoyl-HRKRNNSRLGNGV-NH2
SMILES: CCCCCCCCCCCCCCCC(=O)N[C@@H](Cc1c[nH]cn1)C(=O)N[C@@H](CCCNC(=N)N)C(=O)N[C@@H](CCCCN)C(=O)N[C@@H](CCCNC(=N)N)C(=O)N[C@@H](CC(N)=O)C(=O)N[C@@H](CC(N)=O)C(=O)N[C@@H](CO)C(=O)N[C@@H](CCCNC(=N)N)C(=O)N[C@@H](CC(C)C)C(=O)NCC(=O)N[C@@H](CC(N)=O)C(=O)NCC(=O)N[C@H](C(N)=O)C(C)C
B5: peptide 16 (Pal-RNNSRLGNGVLY-NH2) (peptide)
peptide: Palmitoyl-RNNSRLGNGVLY-NH2
SMILES: CCCCCCCCCCCCCCCC(=O)N[C@@H](CCCNC(=N)N)C(=O)N[C@@H](CC(N)=O)C(=O)N[C@@H](CC(N)=O)C(=O)N[C@@H](CO)C(=O)N[C@@H](CCCNC(=N)N)C(=O)N[C@@H](CC(C)C)C(=O)NCC(=O)N[C@@H](CC(N)=O)C(=O)NCC(=O)N[C@H](C(=O)N[C@@H](CC(C)C)C(=O)N[C@@H](Cc1ccc(O)cc1)C(N)=O)C(C)C
B6: peptide 13 (Pal-KRNNSRLGNGVLYASVN-NH2) (peptide)
peptide: Palmitoyl-KRNNSRLGNGVLYASVN-NH2
SMILES: CCCCCCCCCCCCCCCC(=O)N[C@@H](CCCCN)C(=O)N[C@@H](CCCNC(=N)N)C(=O)N[C@@H](CC(N)=O)C(=O)N[C@@H](CC(N)=O)C(=O)N[C@@H](CO)C(=O)N[C@@H](CCCNC(=N)N)C(=O)N[C@@H](CC(C)C)C(=O)NCC(=O)N[C@@H](CC(N)=O)C(=O)NCC(=O)N[C@H](C(=O)N[C@@H](CC(C)C)C(=O)N[C@@H](Cc1ccc(O)cc1)C(=O)N[C@@H](C)C(=O)N[C@@H](CO)C(=O)N[C@H](C(=O)N[C@@H](CC(N)=O)C(N)=O)C(C)C)C(C)C
B7: peptide 17 (Pal-NSRLGNGVLY-NH2) (peptide)
peptide: Palmitoyl-NSRLGNGVLY-NH2
SMILES: CCCCCCCCCCCCCCCC(=O)N[C@@H](CC(N)=O)C(=O)N[C@@H](CO)C(=O)N[C@@H](CCCNC(=N)N)C(=O)N[C@@H](CC(C)C)C(=O)NCC(=O)N[C@@H](CC(N)=O)C(=O)NCC(=O)N[C@H](C(=O)N[C@@H](CC(C)C)C(=O)N[C@@H](Cc1ccc(O)cc1)C(N)=O)C(C)C
B8: peptide 29 (Pal-RNNSRLGNGVLF-NH2) (peptide)
peptide: Palmitoyl-RNNSRLGNGVLF-NH2
SMILES: CCCCCCCCCCCCCCCC(=O)N[C@@H](CCCNC(=N)N)C(=O)N[C@@H](CC(N)=O)C(=O)N[C@@H](CC(N)=O)C(=O)N[C@@H](CO)C(=O)N[C@@H](CCCNC(=N)N)C(=O)N[C@@H](CC(C)C)C(=O)NCC(=O)N[C@@H](CC(N)=O)C(=O)NCC(=O)N[C@H](C(=O)N[C@@H](CC(C)C)C(=O)N[C@@H](Cc1ccccc1)C(N)=O)C(C)C
B9: peptide 15 (Pal-NNSRLGNGVLY-NH2) (peptide)
peptide: Palmitoyl-NNSRLGNGVLY-NH2
SMILES: CCCCCCCCCCCCCCCC(=O)N[C@@H](CC(N)=O)C(=O)N[C@@H](CC(N)=O)C(=O)N[C@@H](CO)C(=O)N[C@@H](CCCNC(=N)N)C(=O)N[C@@H](CC(C)C)C(=O)NCC(=O)N[C@@H](CC(N)=O)C(=O)NCC(=O)N[C@H](C(=O)N[C@@H](CC(C)C)C(=O)N[C@@H](Cc1ccc(O)cc1)C(N)=O)C(C)C
B10: peptide 2 (Pal-HRKRNNSRLG-NH2) (peptide)
peptide: Palmitoyl-HRKRNNSRLG-NH2
SMILES: CCCCCCCCCCCCCCCC(=O)N[C@@H](Cc1c[nH]cn1)C(=O)N[C@@H](CCCNC(=N)N)C(=O)N[C@@H](CCCCN)C(=O)N[C@@H](CCCNC(=N)N)C(=O)N[C@@H](CC(N)=O)C(=O)N[C@@H](CC(N)=O)C(=O)N[C@@H](CO)C(=O)N[C@@H](CCCNC(=N)N)C(=O)N[C@@H](CC(C)C)C(=O)NCC(N)=O
B11: peptide 24 (Pal-VFHRKRNNSRLGNGVLYASVN-NH2) (peptide)
peptide: Palmitoyl-VFHRKRNNSRLGNGVLYASVN-NH2
SMILES: CCCCCCCCCCCCCCCC(=O)N[C@H](C(=O)N[C@@H](Cc1ccccc1)C(=O)N[C@@H](Cc1c[nH]cn1)C(=O)N[C@@H](CCCNC(=N)N)C(=O)N[C@@H](CCCCN)C(=O)N[C@@H](CCCNC(=N)N)C(=O)N[C@@H](CC(N)=O)C(=O)N[C@@H](CC(N)=O)C(=O)N[C@@H](CO)C(=O)N[C@@H](CCCNC(=N)N)C(=O)N[C@@H](CC(C)C)C(=O)NCC(=O)N[C@@H](CC(N)=O)C(=O)NCC(=O)N[C@H](C(=O)N[C@@H](CC(C)C)C(=O)N[C@@H](Cc1ccc(O)cc1)C(=O)N[C@@H](C)C(=O)N[C@@H](CO)C(=O)N[C@H](C(=O)N[C@@H](CC(N)=O)C(N)=O)C(C)C)C(C)C)C(C)C
B12: peptide 27 (Pal-KRNNSRLGNGVLY-NH2) (peptide)
peptide: Palmitoyl-KRNNSRLGNGVLY-NH2
SMILES: CCCCCCCCCCCCCCCC(=O)N[C@@H](CCCCN)C(=O)N[C@@H](CCCNC(=N)N)C(=O)N[C@@H](CC(N)=O)C(=O)N[C@@H](CC(N)=O)C(=O)N[C@@H](CO)C(=O)N[C@@H](CCCNC(=N)N)C(=O)N[C@@H](CC(C)C)C(=O)NCC(=O)N[C@@H](CC(N)=O)C(=O)NCC(=O)N[C@H](C(=O)N[C@@H](CC(C)C)C(=O)N[C@@H](Cc1ccc(O)cc1)C(N)=O)C(C)C
B13: peptide 19 (Pal-SRLGNGVLY-NH2) (peptide)
peptide: Palmitoyl-SRLGNGVLY-NH2
SMILES: CCCCCCCCCCCCCCCC(=O)N[C@@H](CO)C(=O)N[C@@H](CCCNC(=N)N)C(=O)N[C@@H](CC(C)C)C(=O)NCC(=O)N[C@@H](CC(N)=O)C(=O)NCC(=O)N[C@H](C(=O)N[C@@H](CC(C)C)C(=O)N[C@@H](Cc1ccc(O)cc1)C(N)=O)C(C)C
B14: peptide 12 (Pal-RKRNNSRLGNGVLYASVN-NH2) (peptide)
peptide: Palmitoyl-RKRNNSRLGNGVLYASVN-NH2
SMILES: CCCCCCCCCCCCCCCC(=O)N[C@@H](CCCNC(=N)N)C(=O)N[C@@H](CCCCN)C(=O)N[C@@H](CCCNC(=N)N)C(=O)N[C@@H](CC(N)=O)C(=O)N[C@@H](CC(N)=O)C(=O)N[C@@H](CO)C(=O)N[C@@H](CCCNC(=N)N)C(=O)N[C@@H](CC(C)C)C(=O)NCC(=O)N[C@@H](CC(N)=O)C(=O)NCC(=O)N[C@H](C(=O)N[C@@H](CC(C)C)C(=O)N[C@@H](Cc1ccc(O)cc1)C(=O)N[C@@H](C)C(=O)N[C@@H](CO)C(=O)N[C@H](C(=O)N[C@@H](CC(N)=O)C(N)=O)C(C)C)C(C)C
B15: peptide 20 (Pal-RLGNGVLY-NH2) (peptide)
peptide: Palmitoyl-RLGNGVLY-NH2
SMILES: CCCCCCCCCCCCCCCC(=O)N[C@@H](CCCNC(=N)N)C(=O)N[C@@H](CC(C)C)C(=O)NCC(=O)N[C@@H](CC(N)=O)C(=O)NCC(=O)N[C@H](C(=O)N[C@@H](CC(C)C)C(=O)N[C@@H](Cc1ccc(O)cc1)C(N)=O)C(C)C

Target: Insulin-like growth factor 1 receptor (IGF1R) (UniProt P08069 31-1367, limits assumed)
Sequence (P08069 31-1367 limits assumed): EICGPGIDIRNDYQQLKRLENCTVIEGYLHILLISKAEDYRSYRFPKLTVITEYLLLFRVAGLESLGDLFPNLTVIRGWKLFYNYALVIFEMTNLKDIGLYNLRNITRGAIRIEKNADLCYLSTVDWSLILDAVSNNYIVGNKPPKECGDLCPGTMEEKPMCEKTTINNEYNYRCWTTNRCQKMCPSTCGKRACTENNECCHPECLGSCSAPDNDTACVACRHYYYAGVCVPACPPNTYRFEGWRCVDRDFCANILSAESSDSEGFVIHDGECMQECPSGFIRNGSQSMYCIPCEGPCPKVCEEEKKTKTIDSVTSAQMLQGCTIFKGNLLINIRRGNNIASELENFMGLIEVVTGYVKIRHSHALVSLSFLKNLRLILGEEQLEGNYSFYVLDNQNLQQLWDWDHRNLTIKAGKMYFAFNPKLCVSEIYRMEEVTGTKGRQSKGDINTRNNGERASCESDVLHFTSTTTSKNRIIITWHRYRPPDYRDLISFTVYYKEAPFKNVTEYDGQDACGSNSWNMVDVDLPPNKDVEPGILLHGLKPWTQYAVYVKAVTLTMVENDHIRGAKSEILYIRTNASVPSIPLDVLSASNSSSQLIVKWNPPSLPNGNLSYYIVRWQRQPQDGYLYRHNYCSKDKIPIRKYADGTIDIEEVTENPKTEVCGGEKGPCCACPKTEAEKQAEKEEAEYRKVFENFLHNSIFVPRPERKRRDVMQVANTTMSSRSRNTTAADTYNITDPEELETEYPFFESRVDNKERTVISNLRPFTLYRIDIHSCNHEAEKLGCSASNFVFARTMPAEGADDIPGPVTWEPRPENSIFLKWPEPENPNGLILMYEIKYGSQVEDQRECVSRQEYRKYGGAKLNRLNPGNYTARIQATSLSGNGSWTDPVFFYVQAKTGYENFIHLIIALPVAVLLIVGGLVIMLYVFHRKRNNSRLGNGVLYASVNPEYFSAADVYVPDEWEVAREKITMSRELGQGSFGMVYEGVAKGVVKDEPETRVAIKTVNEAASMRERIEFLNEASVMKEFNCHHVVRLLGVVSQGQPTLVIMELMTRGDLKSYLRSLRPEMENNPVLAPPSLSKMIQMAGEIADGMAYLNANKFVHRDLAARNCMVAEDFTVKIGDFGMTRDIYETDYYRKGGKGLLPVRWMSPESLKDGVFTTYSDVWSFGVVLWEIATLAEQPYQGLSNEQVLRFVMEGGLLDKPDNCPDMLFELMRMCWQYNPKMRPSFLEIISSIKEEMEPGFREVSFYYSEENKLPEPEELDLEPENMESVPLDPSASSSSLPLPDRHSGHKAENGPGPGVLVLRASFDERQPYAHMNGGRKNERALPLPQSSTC
Experiment: cell-based or functional assay

Binder	GI50 (µM), MTT assay, MCF-7 cells [µM]	TGI (µM), MTT assay, MCF-7 cells [µM]
B1	0.04	0.1
B2	1	1.55
B3	0.1	0.4
B4	2.5	> 5
B5	0.07	0.5
B6	0.08	0.5
B7	0.2	1.5
B8	0.1	1.2
B9	0.1	1.5
Ac-[dY][dL][dV]G[dN]G[dL][dR][dS][dN][dN][dR][dK](Palmitoyl) [peptide 18 (Ac-YLVGNGLRSNNRK-(ε-Pal)), retro-inverso version of peptide 27]	0.04	0.4
B10	1.3	> 5
B11	0.1	1.1
B12	1.1	2.5
B13	0.15	2
B14	1.2	2.7
B15	0.2	> 5
